Laboratory results reported in article PMC4476693, “Role of Subunit Exchange and Electrostatic Interactions on the Chaperone Activity of Mycobacterium leprae HSP18” (PLoS ONE, 2015).

Tests used:
[1] = molecular target: the molecule itself; experiment: SEC; analytical gel filtration (TSK-GEL G4000SWXL, HPLC), 25°C, 0.5 mg/ml protein in 50 mM phosphate buffer pH 7.5 with 0.05, 0.15 or 0.5 M NaCl; number of subunits printed for 0.5 M NaCl
[2] = molecular target: the molecule itself; experiment: SEC; analytical gel filtration (TSK-GEL G4000SWXL, HPLC), 25°C, 0.5 mg/ml protein in 50 mM phosphate buffer pH 7.5, no NaCl; column calibrated with molecular weight standards

B1: Mycobacterium leprae HSP18 (natural protein, UniProt P12809 1-148, looked up)
chain: MLMRTDPFRELDRFAEQVLGTSARPAVMPMDAWREGEEFVVEFDLPGIKADSLDIDIERNVVTVRAERPGVDPDREMLAAERPRGVFNRQLVLGENLDTERILASYQEGVLKLSIPVAERAKPRKISVDRGNNGHQTINKTAHEIIDA
notes: wild-type small heat shock protein HSP18 (18 kDa antigen) of Mycobacterium leprae; Large homo-oligomer: 29 subunits without NaCl, approximately 12 subunits in 0.5 M NaCl (gel filtration); also called 18 kDa antigen
[1]
  stoichiometry N: ~12 subunits
[2]
  stoichiometry N: 29 subunits
